Data: the supplement of paper PMC10567573

B1: ZNF263 (parent)
chain: EKPYKCPECGEIFAHSSNLLRHQR
B2: GFOD1 (parent)
chain: EEAEELAKEMSVPFYTSRIDEVLL

Variants of: B1
Experiment: protein stability index of a GFP-peptide fusion (GPS, HEK-293T) (PSI 1-6); higher = more stable
Details: c terminus: a fixed tail appended
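Also: lentivirally expressed fusions sorted by FACS into six bins by GFP to DsRed ratio, PSI derived from sequencing read proportions per bin multiplied by bin number.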

Protein stability index, by site and new letter:
E8: K 3.12 | L 2.37 | H 3.07 | C 3.16 | P 2.74 | D 3.18 | I 2.04 | F 2 | T 2.74 | N 2.1 | V 2.27 | S 2.28 | A 2.51 | M 1.95 | Q 1.71 | Y 2.86 | W 1.88 | R 2.85
S17: M 2.12 | R 2.42 | W 2.24 | D 3.33 | T 2.06 | I 2.89 | Y 2.47 | Q 1.98 | V 2.08 | L 2.79 | H 3.51 | A 2.43 | N 2.75 | P 2.66 | G 2.63 | F 2.85 | E 4.22 | C 4.32
P7: K 1.49 | L 2.33 | W 2.29 | E 2.85 | I 2.28 | M 2.49 | S 2.8 | N 2.21 | R 1.62 | D 3.71 | V 2.68 | C 1.67 | H 2.25 | T 1.82 | F 2.37 | Q 2.46 | Y 2.7 | G 2.14
L19: I 1.8 | H 3.63 | Y 2.54 | S 2.61 | T 2.16 | Q 1.78 | D 2.78 | M 2.38 | N 1.64 | V 2.92 | F 2.68 | E 1.91 | P 2.18 | K 2.73 | C 4.49 | A 1.84
Q23: K 2.9 | D 1.82 | I 3.16 | L 2.86 | A 2.21 | T 2.25 | C 2.41 | F 2.35 | G 1.82 | Y 2.07 | H 2.34 | M 3.02 | P 2.11 | V 1.82 | E 2.48 | W 2.42 | N 2.88
H15: G 2.55 | T 3.55 | Y 1.8 | E 3.3 | R 2.31 | I 1.7 | F 2.94 | P 2.54 | N 3.62 | M 1.56 | L 1.95 | C 3.26 | D 3.96 | Q 3.15 | S 4.34 | A 2.3 | W 2.65 | V 2.49
R21: K 3.51 | Y 3.36 | L 2.82 | F 3.04 | E 4.38 | V 2.85 | C 3.98 | H 3.35 | T 4.27 | A 3.84 | P 3.43 | S 2.89 | W 3.43 | D 4.24 | G 2.01 | N 3.29 | M 3.58 | I 3.75
N18: C 3.75 | A 4.13 | Y 3.37 | V 4.54 | D 4.05 | M 2.82 | P 2.55 | S 4.02 | E 4.7 | W 2.06 | T 2.76 | L 2.67 | I 2.37 | F 2.54 | H 4.44 | G 3.05
H22: T 1.43 | F 1.66 | Q 1.54 | E 2.55 | D 3.17 | W 1.23 | C 2.43 | A 2.88 | I 1.34 | M 2.64 | G 1.25 | S 1.89 | N 2.35 | L 1.91 | K 2.16 | R 3.03 | P 1.35
R24: A 4.17 | T 3.24 | I 3.25 | E 4.38 | H 4.43 | D 3.96 | M 3.6 | K 3.25 | Q 3.74 | S 4.47 | C 5.28 | L 4.29 | W 2.74 | Y 2.68 | F 3.32 | G 3.7 | N 3.92 | V 3.54 | P 3.44
C9: N 3.48 | M 3.83 | Q 4.07 | W 2.34 | G 3.84 | D 3.74 | E 4.06 | T 3.02 | S 3.72 | L 2.93 | V 2.92 | F 2.71 | R 3.73 | I 2.72 | K 3.5 | A 3.62 | Y 3.45 | P 3.86 | H 2.56
G10: A 1.88 | P 2.82 | Q 1.84 | I 1.79 | Y 1.69 | C 1.94 | F 2.03 | R 2.37 | W 2.14 | D 2.98 | N 1.58 | K 2.31 | T 1.92 | M 1.91 | H 2.59 | S 2.12 | L 1.74 | V 1.78
L20: E 2.75 | N 1.59 | G 2.29 | F 1.78 | C 4.11 | H 3.79 | R 2.59 | A 1.79 | K 2.62 | M 2.6 | T 2.66 | Q 2.96 | I 2.04 | P 1.84 | D 3.29 | Y 2.44 | V 1.87
I12: P 1.73 | L 3.66 | S 2.98 | E 2.94 | D 2.22 | W 2.23 | A 2.29 | V 1.7 | H 1.57 | N 1.83 | Q 3.23 | C 1.26 | Y 3.01 | M 2.04 | F 1.82 | G 1.17 | K 1.12
E11: R 3.09 | F 1.79 | T 2.1 | D 2.38 | P 1.85 | Q 2.68 | H 1.89 | S 1.13 | K 3 | L 1.76 | M 1.72 | A 2.03 | W 2.42 | Y 3.05 | C 2.25 | V 1.64 | G 1.98 | I 2.19 | N 1.73
A14: Q 2.45 | W 2.69 | L 2.75 | Y 2.79 | F 2.57 | E 4.13 | N 2.7 | S 2.38 | C 2.37 | D 3.67 | R 2.57 | M 2.29 | V 3.17 | T 2.58 | G 3.09 | P 2.7 | H 3.17 | K 2.82 | I 2.27
F13: G 2.35 | C 3.01 | R 3.24 | L 2.54 | S 2.75 | V 2.12 | N 1.51 | K 2.55 | H 4.03 | P 2.62 | Y 2.19 | D 3.37 | W 1.5 | I 2.8 | Q 2.33 | M 2.1
S16: L 3.26 | C 2.73 | A 2.36 | P 2.81 | E 3.04 | H 2.55 | K 1.71 | T 1.84 | M 3.32 | I 2.96 | F 3.53 | N 1.33 | W 3.44 | Q 2.45 | G 2.48 | R 2.3 | D 2.47 | V 2.83 | Y 3.26

Variants of: B2
Experiment: as above
Details: c terminus: a fixed tail appended

Protein stability index: each site, then its substitutions
I19: C 4
A7: C 4.06 | I 2.77
A3: Y 3.38
L6: N 4.51
V12: K 3.99 | I 3.6
S11: Y 2.86 | M 3.67
L24: F 3.55
K8: L 2.46
Y15: G 4.97
M10: A 4.41
P13: L 2.57
E4: M 4
